According to publication PMC4072576 (Molecular Biology of the Cell, 2014):

B1: His-ctxII (recombinant N-terminal His-tagged cortexillin II) (natural protein)
chain: MDLNKEWEKVQEMAFTSWVNSVLEKRGCDKISDVSTDLSDGVKLIYFLESVSGKKFPKKFDLEPKTRIMRVQNLHLAMLFIDEDLKIKVQGVAAEEFVDNNKKMILGFLWTLYRKYRISVINEGDKSSEEGLLAWCKKTTEGYNNVNITGFKSSFRDGHGFLALAHKYDPTVFKYDEYEGHDNIARLNAAFDFAEKGLGIPKLLEAESLSKGNVDERSIVLYTSLFFHAFRAKEEREALEASQNSLNNKLASLEQSLEGEKHSQEELVKQKKDLEDALNKIREQNDNRNSRITDLQSKIDDALRGLDDEKLAKLDLESRLAKCEKDKAILELKLAEILDEKDRLEKKIDEDKKRAEAERLGLGLIRQHLAAQFSDIHKWQSFLEHPETVPYTGTPVDLDSELSSLSFEEQAKKLASKLESENILIEKYLNGKEEAKAAAKK
B2: His-ctxI (recombinant N-terminal His-tagged cortexillin I) (natural protein)
chain: MAGKDWEIVQEKAFTAWVNSVLDKRGEKISDVGKDLSDGVKLIFFLELISSKKFNKKYDFEPKARINMIQNVALALKFLDEELKIKVQGIGSEDFVDNNKKMILGFLWTLYRKYRIAVISEGDKSSEEGLLLWCKNTTTGYDGVNITSFTKSFRDGLAFLALSHKFEPESFKFQEFEAMDPIARLNAAFDFAEKGLGVPKLLEAEEVMRGTTDERSLVLYTSLFFHAYRAKEEKARLESSKNEMANRLAGLENSLESEKVSREQLIKQKDQLNSLLASLESEGAEREKRLRELEAKLDETLKNLELEKLARMELEARLAKTEKDRAILELKLAEAIDEKSKLEQQIEATRIRGAAEAQGLGLLRKNLDTHVHDLLKWQKLTMENSSSSSIDDQIIVEVSGLPFGEQVKHLATKLEAENLAIMKLLNQKEDDLKAQKLKSSKSKK

Target: F-actin (rabbit muscle actin) (rabbit, UniProt P68135 1-377)
Assay: co-sedimentation

Row | Binder | binding result | Kd | stoichiometry N
1 | B1 | binds |  | 
2 | B2 |  | ~200 nM | ~4 actin subunits per ctxI homodimer
